Reference: US20180273632A1 (BIOCEROX PRODUCTS B V, published 2018)

Legend:
[1] = biological target: T1, human CD134 (full-length, on cells) (human, UniProt P43489 29-277); assay: flow cytometry, PHA-stimulated human T lymphocytes, two donors
T1 construct: also called OX40; TNFRSF4
T1 sequence: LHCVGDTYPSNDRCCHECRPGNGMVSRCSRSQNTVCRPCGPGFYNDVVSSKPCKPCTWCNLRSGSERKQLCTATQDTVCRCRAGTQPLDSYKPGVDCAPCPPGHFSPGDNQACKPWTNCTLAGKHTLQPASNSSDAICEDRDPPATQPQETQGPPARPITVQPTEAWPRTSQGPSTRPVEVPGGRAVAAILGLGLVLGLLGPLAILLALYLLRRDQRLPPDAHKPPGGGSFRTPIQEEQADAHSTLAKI
Procedure: PHA-stimulated (at 10 μg/mL for 2 days; see above) human CD134 expressing T lymphocytes were generated. Cells were harvested and put at 1-2×10⁶ cells/mL in ice chilled PBS/BSA/NaN₃ supplemented with 10% HPS (blocking Fcγ receptors; BioWhittaker). […] After extensive washing in PBS/BSA/NaN₃, cells were subsequently incubated with 1:200 diluted PE-conjugated goat anti-mouse IgG antibodies (Jackson ImmunoResearch) for 30 minutes at 4° C. […] After extensive washing in PBS/BSA/NaN₃, cells were fixed in 2% formaldehyde in PBS/BSA/NaN₃ for 30 minutes at 4° C.

[2] = biological target: T1, human CD134 (full-length, on cells); assay: flow cytometry, PHA-stimulated human T lymphocytes
[3] = biological target: T2, 'truncated (tc) CRD4' construct of human CD134 (amino acids 147-277 linked to signal peptide amino acids 1-28) (human, UniProt P43489 147-277); assay: flow cytometry on 293-F cells transiently transfected with the construct, PE goat anti-mouse IgG (Fcγ) [cont.]
T2 construct: also called truncated CRD4
T2 sequence: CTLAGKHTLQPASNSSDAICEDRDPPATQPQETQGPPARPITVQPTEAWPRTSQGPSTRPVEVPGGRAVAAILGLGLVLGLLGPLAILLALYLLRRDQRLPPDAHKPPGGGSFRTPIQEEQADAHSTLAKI
Procedure: (§1) After 48-72 h, surface human CD134 expression on transfected cells was analyzed by FACS analysis. To this end, transfected cells were harvested and put at 1-2×10⁶ cells/mL in ice-chilled PBS/BSA/NaN₃. […] After extensive washing in PBS/BSA/NaN₃, cells were subsequently incubated with 1:200 diluted PE-conjugated goat anti-mouse IgG (Fcγ specific) antibodies (Jackson ImmunoResearch) for 30 minutes at 4° C. After extensive washing in PBS/BSA/NaN₃, cells were fixed in 2% formaldehyde in PBS/BSA/NaN₃ for 30 minutes at 4° C.

[4] = biological target: T3, human fibronectin-derived control peptide (extra type III structural domain) (human); assay: ELISA, plate coated with 10 ng/well control peptide, HRP goat anti-mouse IgG Fcγ, n=1
T3 construct: Synthesized by Pepscan Presto; coated on ELISA plates at 10 ng/well; also called ED1 peptide
T3 peptide: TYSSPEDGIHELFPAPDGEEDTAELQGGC
Procedure: (§2) Ninety six-wells flat-bottom ELISA plates (Corning) were coated with 10 ng/well human CD134-derived peptide (synthesized by Pepscan Presto, Lelystad, The Netherlands), which corresponded to amino acid sequence of truncated CRD3 A1-module-CRD4 subdomain A1-module (see SEQ ID NO. 38) or with 10 ng/well human fibronectin-derived control peptide (synthesized by Pepscan Presto, Lelystad, The Netherlands), which corresponded to amino acid sequence of extra type III structural domain (see SEQ ID NO. 37) in PBS o/n at 4° C. After extensive washing in PBS/0.05% Tween 20, plates were blocked in PBS/0.05% Tween 20/1% BSA fraction V (Roche) for 1 hour at RT. […] After extensive washing in PBS/0.05% Tween 20, binding of antibodies was determined with 1:5000 diluted horseradish peroxidase-conjugated goat anti-mouse IgG Fcγ-specific antibodies (Jackson ImmunoResearch) for 1 hour at RT, followed by a ready-to-use solution of TMB substrate (lnvitrogen) for colorimetric detection. After adding 1 M H₂SO₄, optical densities was measured at a wavelength of 450 nm (reference wavelength of 655 nm) using a microplate reader (BioRad).

[5] = biological target: T4, human CD134-derived peptide (truncated CRD3 A1-module-CRD4 subdomain A1-module, amino acids 108-146) (human); assay: ELISA, plate coated with 10 ng/well huCD134 peptide, HRP goat anti-mouse IgG Fcγ, n=1
T4 construct: Synthesized by Pepscan Presto; coated on ELISA plates at 10 ng/well
T4 peptide: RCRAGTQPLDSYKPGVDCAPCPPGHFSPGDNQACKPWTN
Procedure: as §2

[6] = biological target: T2, 'truncated (tc) CRD4' construct of …; assay: flow cytometry on 293-F cells transiently transfected with the construct, PE goat anti-human IgG (Fcγ) [cont.]
Procedure: as §1, with “PBS/BSA/NaN3.” for “PBS/BSA/NaN₃.”, “anti-human” for “anti-mouse”

[7] = biological target: T4, human CD134-derived peptide (truncated …); assay: ELISA, plate coated with 10 ng/well huCD134 peptide, HRP goat anti-human IgG Fcγ, n=1
Procedure: as §2, with “anti-human” for “anti-mouse”, “(invitrogen)” for “(lnvitrogen)”

[8] = biological target: T3, human fibronectin-derived control …; assay: ELISA, plate coated with 10 ng/well control peptide, HRP goat anti-human IgG Fcγ, n=1
Procedure: as §2, with “anti-human” for “anti-mouse”, “(invitrogen)” for “(lnvitrogen)”

[9] = biological target: T1, human CD134 (full-length, on cells); assay: flow cytometry, PHA-stimulated human CD4 positive T lymphocytes
Procedure: PHA-stimulated (at 10 μg/mL for 1 day; see above) human CD134 expressing T lymphocytes were generated. Cells were harvested and put at 1-2×10⁶ cells/mL in ice-chilled PBS/BSA/NaN3. […] After extensive washing in PBS/BSA/NaN₃, cells were subsequently incubated with 1:50 diluted FITC-conjugated mouse anti-human IgG4 antibodies (Sigma) for 30 minutes at 4° C. […] After extensive washing in PBS/BSA/NaN₃, cells were fixed in 2% formaldehyde in PBS/BSA/NaN₃ for 30 minutes at 4° C.

An EC50 [1] of 2.5 µg/mL and a saturating concentration [2] of 5 µg/mL were found for “commercially available mouse anti-human CD134 antibody clone ACT35 (BD Biosciences)” in this work.

B1: mouse anti-human CD134 monoclonal antibody clone 12H3 (antibody, mouse IgG1, V domains shown)
VH: EVQLQQSGPELVKPGASVKISCKTSGYTFKDYTMHWVKQSHGKSLEWIGGIYPNNGGSTYNQNFKDKATLTVDKSSSTAYMEFRSLTSEDSAVYYCARMGYHGPHLDFDVWGAGTTVTVSP
VL: DIVMTQSHKFMSTSLGDRVSITCKASQDVGAAVAWYQQKPGQSPKLLIYWASTRHTGVPDRFTGGGSGTDFTLTISNVQSEDLTDYFCQQYINYPLTFGGGTKLEIKR
notes: also called m12H3
For B1, the EC50 [1] was 0.5 µg/mL, the binding result [3] was “no binding (tested: 20.0 µg/mL)” and the binding result [4] was “no binding (tested: 50 µg/mL)”. B1: binds [5].

B2: chimeric human IgG4κ anti-human CD134 monoclonal antibody clone 12H3 (antibody, V domains shown)
VH: EVQLQQSGPELVKPGASVKISCKTSGYTFKDYTMHWVKQSHGKSLEWIGGIYPNNGGSTYNQNFKDKATLTVDKSSSTAYMEFRSLTSEDSAVYYCARMGYHGPHLDFDVWGAGTTVTVSP
VL: DIVMTQSHKFMSTSLGDRVSITCKASQDVGAAVAWYQQKPGQSPKLLIYWASTRHTGVPDRFTGGGSGTDFTLTISNVQSEDLTDYFCQQYINYPLTFGGGTKLEIKR
B2: no binding (tested: 20.0 µg/mL) [6]; binds [7]; no binding (tested: 50 µg/mL) [8].

B3: mouse anti-human CD134 monoclonal antibody clone 20E5 (antibody, mouse IgG1, V domains shown)
VH: EVQLQQSGPELVKPGASVKMSCKASGYTFTSYVMHWVKQKPGQGLEWIGYINPYNDGTKYNEKFKGKATLTSDKSSSTAYMELSSLTSEDSAVYYCANYYGSSLSMDYWGQGTSVTVSS
VL: DIQMTQTTSSLSASLGDRVTISCRASQDISNYLNWYQQKPDGTVKLLIYYTSRLHSGVPSRFSGSGSGTDYSLTISNLEQEDIATYFCQQGNTLPWTFGGGTKLEIKR
notes: also called m20E5
An EC50 [1] of 2.5 µg/mL was found for B3 in this work.

B4: chimeric human IgG4κ anti-human CD134 antibody clone 20E5 (antibody, V domains shown)
VH: EVQLQQSGPELVKPGASVKMSCKASGYTFTSYVMHWVKQKPGQGLEWIGYINPYNDGTKYNEKFKGKATLTSDKSSSTAYMELSSLTSEDSAVYYCANYYGSSLSMDYWGQGTSVTVSS
VL: DIQMTQTTSSLSASLGDRVTISCRASQDISNYLNWYQQKPDGTVKLLIYYTSRLHSGVPSRFSGSGSGTDYSLTISNLEQEDIATYFCQQGNTLPWTFGGGTKLEIKR
notes: also called hu20E5
An EC50 [9] of roughly 1 µg/mL was found for B4 in this work.
